Laboratory results from paper PMC2989778.
Values belong to the binder of their own block, whether it stands above or below them.

Biological target: hCD40–BAFF-R_(His159-Tyr) chimera (human | mouse) (UniProt P25942)
Assay: co-IP

fold increase in recruitment against hCD40–BAFF-RWT (60 min): 5 fold
B1: TRAF2 (mouse, endogenous) (natural protein)
chain: MAAASVTSPGSLELLQPGFSKTLLGTRLEAKYLCSACKNILRRPFQAQCGHRYCSFCLTSILSSGPQNCAACVYEGLYEEGISILESSSAFPDNAARREVESLPAVCPNDGCTWKGTLKEYESCHEGLCPFLLTECPACKGLVRLSEKEHHTEQECPKRSLSCQHCRAPCSHVDLEVHYEVCPKFPLTCDGCGKKKIPRETFQDHVRACSKCRVLCRFHTVGCSEMVETENLQDHELQRLREHLALLLSSFLEAQASPGTLNQVGPELLQRCQILEQKIATFENIVCVLNREVERVAVTAEACSRQHRLDQDKIEALSNKVQQLERSIGLKDLAMADLEQKVSELEVSTYDGVFIWKISDFTRKRQEAVAGRTPAIFSPAFYTSRYGYKMCLRVYLNGDGTGRGTHLSLFFVVMKGPNDALLQWPFNQKVTLMLLDHNNREHVIDAFRPDVTSSSFQRPVSDMNIASGCPLFCPVSKMEAKNSYVRDDAIFIKAIVDLTGL

fold increase in recruitment against hCD40–BAFF-RWT (60 min): 4 fold
B2: TRAF3 (mouse, endogenous) (natural protein)
chain: MESSKKMDAAGTLQPNPPLKLQPDRGAGSVLVPEQGGYKEKFVKTVEDKYKCEKCRLVLCNPKQTECGHRFCESCMAALLSSSSPKCTACQESIIKDKVFKDNCCKREILALQVYCRNEGRGCAEQLTLGHLLVHLKNECQFEELPCLRADCKEKVLRKDLRDHVEKACKYREATCSHCKSQVPMIKLQKHEDTDCPCVVVSCPHKCSVQTLLRSELSAHLSECVNAPSTCSFKRYGCVFQGTNQQIKAHEASSAVQHVNLLKEWSNSLEKKVSLLQNESVEKNKSIQSLHNQICSFEIEIERQKEMLRNNESKILHLQRVIDSQAEKLKELDKEIRPFRQNWEEADSMKSSVESLQNRVTELESVDKSAGQAARNTGLLESQLSRHDQMLSVHDIRLADMDLRFQVLETASYNGVLIWKIRDYKRRKQEAVMGKTLSLYSQPFYTGYFGYKMCARVYLNGDGMGKGTHLSLFFVIMRGEYDALLPWPFKQKVTLMLMDQGSSRRHLGDAFKPDPNSSSFKKPTGEMNIASGCPVFVAQTVLENGTYIKDDTIFIKVIVDTSDLPDP
